# Measured values: patent US20150191516A1 (ONCOTHERAPY SCIENCE, published 2015)
# Key:
# HLA-DR15 (DRB1*15:02) = biological target: T1, HLA-DR15 (DRB1*15:02) (human); assay: concluded from IFN-gamma ELISPOT with peptide-pulsed L cells expressing single HLA class II molecules and blocking mAbs; no direct binding assay
# T1 construct: whole, on cells; MHC class II molecule on transfected L cells (L-DR15); also called L-DR15 (mouse L cells expressing it)
# Experimental: (§1) The immune response of Th cells to APCs pulsed with peptides were assessed by IFN-gamma ELISPOT assays (Human IFN-gamma ELISPOT kit, BD Biosciences) as described previously (Tomita Y, et al. Cancer Sci; 102: 697-705.). Briefly, the frequency of peptide-specific CD4⁺ T cells producing IFN-gamma per 3×10⁴ bulk CD4⁺ T cells upon stimulation with peptide-pulsed PBMCs (3×10⁴ cells/well), or 1×10⁴ bulk CD4⁺ T cells upon stimulation with peptide-pulsed HLA-DR or DP-expressing L-cells (5×10⁴/well) was analyzed. To determine restriction HLA molecules involved in antigen presentation, blocking of antigen-induced IFN-gamma production was investigated by adding anti-HLA-DR mAb (L243, Biolegend), anti-HLA-DP mAb, (B7/21, abcam), anti-human HLA-DQ mAb (SPV-L3, abcam), or anti-HLA class I mAb, (W6/32, abcam). All mAbs were used at a final concentration of 5 micro-g/ml. Cells cultured with HIV-derived peptides were used as negative control. Cells cultured with PMA (100 ng/ml; Sigma-Aldrich) and ionomycin (500 ng/ml; Sigma-Aldrich) were used as positive controls. All assessments of IFN-gamma ELISPOT assays were carried out in duplicate or triplicate, and results corresponded to mean values.
# HLA-DR8 (DRB1*08:03) = biological target: T2, HLA-DR8 (DRB1*08:03) (human); assay: as above
# T2 construct: whole, on cells; MHC class II molecule on transfected L cells (L-DR8); also called L-DR8 (mouse L cells expressing it)
# Experimental: as §1
binder,measurement,setting,value
"KWTEPYCVIAAVKIFPRFFMVAKQ (Synthetic 24-mer, purity >90%) [LY6K (119-142) long peptide]",binding result,HLA-DR15 (DRB1*15:02),binds
same,binding result,HLA-DR8 (DRB1*08:03),binds
